According to a protein production outcome set (Wang et al. 2014):

Experiment: label from the status in PepcDB records

Sequence	protein production
MACFSGTVYLVACRFRSRGNSMPYKISQYVLDDATPDDSGIVQGDMDVFIHQLMTLMEASQQGYALFDGNDELRFANSAFRAALGIGRHEFPSWVDMMRSGYRTTTGTSIETSDFELWLRSAKTRRGKLPFRTIETSLKDGRWMLTTETTLPGGWMLCVITDVSELGIELRDLRQERDRALKSALSDELTGLGNRRYAMDTLNHLLGPNKAQALAVIIMDIDHFKSVNDRFGHAYGDLVLKDFAARLSATAGRDDLLGRIGGEEFLLVLSGSRMHSADSLMRQLLSSLAQASPLGDRPDFRYSCSAGIAYANPGESASEVLRHADTALYEAKNTGRNRYVIYATVP	failed
MACGATLKRPMEFEAALLSPGSPKRRRCAPLPGPTPGLRPPDAEPPPLQMQTPPASLQQPAPPGSERRLPTPEQIFQNIKQEYNRYQRWRHLEVVLSQSEACTSETQPSSSALTAPGSPGAFWMKKDQPTFTLRQVGIICERLLKDYEDKVREEYEQILSTKLAEQYESFVKFTHDQIMRRYGTRPTSYVS	failed
MACGEFSLIARYFDRVRSSRLDVELGIGDDCALLNIPEKQTLAISTDTLVAGNHFLPDIDPADLAYKALAVNLSDLAAMGADPAWLTLALTLPDVDEAWLESFSDSLFDLLNYYDMQLIGGDTTRGPLSMTLGIHGFVPMGRALTRSGAKPGDWIYVTGTPGDSAAGLAILQNRLQVADAKDADYLIKRHLRPSPRILQGQALRDLANSAIDLSDGLISDLGHIVKASDCGARIDLALLPFSDALSRHVVPEQALRWALSGGEDYELCFTVPELNRGALDVALGHLGVPFTCIGQMTADIEGLCFIRDGEPVTLDWKGYDHFATP	not failed
MACGKGHDIMEVASPYGWKKNPQKVLDFYNQRRRQLFEVYPNKAHKALAELEKHYQVNIITQNVDDLHERAGSSRILHLHGELLSVRSEKDPNLVYRWEKDLNLGDLAKDKSQLRPDIVWFGEAVPLLKEAISLVKQAHLLIIIGTSLQVYPAASLYTHAHKDALIYYIDPKAKNAHLPQNVQCINESAVHAMQDLMPKLIEMAS	failed
MACSRFERQNMFKLCLDFTQKRAPMSQKQPINLVLSGGGTRAIGHLAIISALLERGFEIRAISGSSGGAIVGSLLASGKSPKECYDLLLKTNFVRLFAFKMSQGGLFHLKRGEAYLEKILGIKEFSELSLPLYVCVVDLKEGRPFFLSEGNIAKAVIASSSISPFMRPVEMEGRMGADGGIMNNLPIEPFLEENLPIIGINVNPNRPFHSHSMVSIAKRALFLQFYSNILERSKLCSLYLEPSGIDAYTIYDLKSLESVYNLCQEWCETNLDALIGDVPLHVLRP	failed
MADEMMVKELEEVVVRFSGDSGDGMQLAGNIFSNVSATVGNDICTFPDYPADIRAPQGSLTGVSGFQVHVGASKIFTPGDHCHVLVAMNPAALKTQIKFCKPQGLVITDSDSFGEKDLEKAQFKTGNPFEEMGITQQVLEVPISSMCKESLKNSGLDNKAMLRCKNMFALGLVCWLFNRNLSAAEKMLNEKFAKKPEIAAANIKVLNDGYNYGANTHASTSTYKIESKTPKAAGLYTDINGNKATSYGLIAAAEKAGLELYLGSYPITPATDILHELAKHKSLGVKTVQCEDEIAGCASAVGAAFAGDLAVTTTSGPGVCLKSEAMNLAVIAELPLVVVNVQRGGPSTGMPTKSEQTDLLQALYGRNGESPMPVIAATSPTNCFDAAYMAAKIALEHMTPVVLLTDAFIANGSAAWKLPNMDEYPAINPPYVTPDMIGTWTPFQRNEKTGVRYWAVPGTEGFMHRIGGLEKSSETGVISTEPENHQKMTLLRQAKVDKIADSIPEQEVQGDADADLLVVGWGGTYGHLYSAVEHMRKNGKKVALAHFQYINPLPKNTAEILKKYKKIVVAEQNLGQFAGYLRMKVPGLNISQFNQVKGQPFVTRELVEAFTKLLEE	not failed
MADFQVVVGDDDGTAYSFEVDGQDANRFIGRAIGETVDGDAVGLPGYELEITGGSDQSGRPMHGDINGAETAAILSEGGVGFNPTVDGERKRVTVRGAEVSEDTRQINASIVSRGEQSIDDLLGGEDDE	failed
MADGIYGSFENLKKHAGAMTLETYMRFNAKLSEAKDEMGAKEYEEFTKELKKLTNAKLAYGDSNGNIDYDGLSPAKREEMKKVSMGLQPYFDKLNGHKSSKEVLTQEEFDRYMEALMTHEIVRVKTKSTGAIKIEEVPEAYKERFIKAEQFMEYVDEKVR	not failed
MADIINNIVGGRYYILELIGRGGSAIVYKARDIHNGGIYALKKYITSDPANRKRLLEGMERELEVLKNCTHPVLPKIFDLIKIEDAFFLVMEYIDGIDLKKYVDEYGTLSTKMLIKVMEQVCSGFYYLHSLSPAIVYRDLKPANIILCKDGRIKLIDFGIAKRYRTDIDVDKLALGSKGFAAPEQFGDSKGKGLYNTDIRADIYGIGTTMYYLKTAKTYNSVPGSKSLYSFKDYFKTSHKLRKIIKKCTKNNPDLRYQSCIEILCSIKTLHIIGK	failed
MADIQGEDLESLYGYAKQLFDGGEIAAARNVYQLLSTLDHWNFDYLLALGLCHQRLGAHNEAVVCFGRAGLIKVDDPRAAFYAGISYRLDGNAEYASKAFKAAINWCGEQIDYQAIKASAVDMLALQQEEVPLEHHHHHH	not failed
MADLSFIEDTVAFPEKEEDEEEEEEGVEWGYEEGVEWGLVFPDANGEYQSPINLNSREARYDPSLLDVRLSPNYVVCRDCEVTNDGHTIQVILKSKSVLSGGPLPQGHEFELYEVRFHWGRENQRGSEHTVNFKAFPMELHLIHWNSTLFGSIDEAVGKPHGIAIIALFVQIGKEHVGLKAVTEILQDIQYKGKSKTIPCFNPNTLLPDPLLRDYWVYEGSLTIPPCSEGVTWILFRYPLTISQLQIEEFRRLRTHVKGAELVEGCDGILGDNFRPTQPLSDRVIRAAFQLEHHHHHH	not failed
MADLYTVVSSIILLFIVLDPVGVSPYVASIVARRPEGERERIVRTALASAGAILVAFTLIGVAVLDILGVSMDEFKVAAGLLLLIYATADLFEIKIGYSEPSGDEVAIFPLATPLLAGPGSIATVMYIMGSSGIAVALIAILVNLVLAYPILHASLKLVRLLGRHGSLLVAKFTAFLMVGFAVSIIFDGLRGIVPGVFS	failed
MADMTKQAFMRLSNPKFIMLFLILWVSLLLSSNHTLSQLADYIFFTFLGTLGAIFANSTGAGGGVVFIPMFTQLNFTEQQSIATSFAIQCFGMTAGAVTWWHHYRTEKTDLRLWQGFKRIICVTTIASIIGLNAVFFYQVNSPATLHTSFSWFSLLLGFFIVLTIYLLQPHRERSQLYYVDYIFLILIGLFGGAVTAWLSVGVGELLVIYLLLRHFDISMAVAAAVIVSAISVWTAIAQVNSDVYWQVVLFAGPGAVLGGIFAKTLVTHLSAIKLKLFFACWLLLSGVVGLI	failed
MADQAPRPAREFVVEADGGSRGNPGPAGYGAVVLDPVTGEALVEAAEYLGVVTNNVAEYRGLLAGLRAAAELDPDATVHVRMDSKLVVEQMSGRWKIKHPDMKPLAAEAARVFPPGRVTYEWIPRASNKHADRLANEAMDAGARGEAWSPSDSTAELDAAAADRAAPAGRTAGSRRTGAASAVAPAGTEGGDGGEPAPDGGGAAAGEPLARAGRDRVDAASLGAGTRAATSTGASATGTSGTGASATGTSGTGASATGAPGLGVAAETSGEADVRAAKVVASPGWGPPDMGAPATFVLLRHGETPLTPQKRFSGSGGSDPSLSPVGREQAERVAASLARRGTIEAVVASPLARTRETAGIVAARLGLEVAIEEGLRETDFGAWEGLTFGEVRERHPADLDAWLASPDAEPTGGGESFAATGTRIAATRDRLVAAYAGRTVLLVSHVTPIKTFVRLALGAPPESLFRMELSAASLSAVAYYADGGASVRLFNETSHLR	failed
MADQSFAVLGLGKFGMALTVALLKAEQDVLVIDSNEEVINDVAHLVTHAVIADATDEDELRDLDIGSFDHVFVTMGENVEGSIITTMLAKKLGAPDVTTRANNHNHRLVLEKIGADHVIEPEQDMARQLIFRQLHPNVVNYFNLSKNISLIEVSVENSRFFNQSLGDLDFRKNYDVSVIGIVHDGKLNQVPLATDVIAPHDQITLIGSNKAVQRLDDILREEK	failed
MADRLIVRGAREHNLKNVSLDLPRDSLIVFTGLSGSGKSSLAFDTIFAEGQRRYVESLSSYARQFLGQMDKPDVDFIEGLSPAVSIDQKSTSRNPRSTVGTITEVYDYLRLLFARIGKPHCPECGRPISRQSPQAIVDKVLELPEGSRFQVLSPLVRERKGEFVDLFADLQTKGYSRARVDGETVQLSNPPTLKKQEKHTIEVVVDRLTVKDSAKRRLTDSVETALGLSGGMVVLDFVDLPEDDPERERMYSEHLYCPYDDLSFEELEPRSFSFNSPFGACPDCSGIGTRMEVDAELIVPDEDKSLDEGAIHPWSHGHTKDYFGRLIGALADALGFRTDIPFAGLPLRARKALLYGHKTQVEVRYRNRYGRERRYTTAFEGAIPFVKRRHSEAESDASRERFEGYMREVPCPTCQGTRLKPLVLAVTVMGKSIAEVSAMSISDCADFLGELTLNARDKKIAERVLKEVNERLRFLVDVGLDYLSLNRAAGTLSGGEAQRIRLATQIGSGLVGVLYVLDEPSIGLHQRDNHRLIETLVRLRDMGNTLIVVEHDEDTIKVADWIVDIGPGAGEHGGKVVHSGSVKELLDNAESQTGLYLSGRKAIPLPDIRRPQDPSRRLTVHGARENNLQDIDVSFPLGVFTAVTGVSGSGKSTLVNDILYTHLARELNGARNVPGRHTRVDGDDLVDKVVHVDQSPIGRTPRSNPATYTGVFDHIRKLFAETTEAKVRGYLPGRFSFNVKGGRCENCAGDGTIKIEMNFLPDVYVPCEVCHGARYNRETLEVHYKGKSIADVLNMPIEEATDFFEAVPAISRHMKTLKDVGLGYVRLGQSATTLSGGEAQRVKLASELQRRSTGRTVYVLDEPTTGLHFEDISKLLTVLGGLVDKGNTVIVIEHNLDVIKTADWVVDMGPEGGAGGGLVVAEGTPEQVAGVPASHTGKFLRDVLGADRVSDAAPVTRPRKAAKTVAAKAAAKKTATKTVTGTAAKKATATRTAKTAVKKAAKPAAKKTTRTSKA	failed
MADSENMYILSEDEDVCPTCLEEYTSENPKIVTKCSHHFHLSCIYEWMERSENCPVCGKVMEFNETP	failed
MADSRPRLVTGSPEGYPGHVDGRLRDARLNNPKGLTVDDRGNIYVADTVNNAIRKISEAGVTTIAGGKMVRGGGHVDGPSEDAKFSNDFDVVYLGSSCSLLVIDRGNQAIREIQLHFDDCADQYGSGFPLGIAVLVAAVFFGYMLALLQRRLSSIVSYHTDQEVFEAVPDQDPIKPVRPPLILTGDEQEKQEESFLGTLQIFISNAWVFSVELFSGMFPGLRKKQTVGLNFNHQETKHSAFSTTSWPIQESFVIHNKDEPPPVESRNATPGKIYPFMSKDATEKMQQLRQSRALYRSLDAEFLQEQQQEKHQQYHHRHHSTIPYTLYEQSSEKTNEIVFGPGQEQDQMNTHQNIHHRAHQFVSYPYGYYS	failed
MADVATKHPMEDEVKKTEASSLVGKLETDVEIKASADKFHHMFAGKPHHVSKASPGNIQGCDLHEGDWGTVGSIVFWNYVHDGEAKVAKERIEAVEPDKNLITFRVIEGDLMKEYKSFLLTIQVTPKPGGPGSIVHWHLEYEKISEEVAHPETLLQFCVEVSKEIDEHLLAEEEEVKTPETPSLVGKLETDVEIKASAEKFHHMFAGKPHHVSKASPGNIQGCDLHEGDWGQVGSIVFWNYVHDREAKVAKERIEAVEPNKNLITFRVIDGDLMKEYKSFLLTIQVTPKLGGPGSIVHWHLEYEKISEEVAHPETLLQFCVEVSKEIDEHLLAEE	failed
MADVENQQDSSFPVKRKSDLFCQDQDNVTNKAQKLNPSLNSADSESKDGETNGSGQIENLNSSTEETIGAESSVLSEKAAEEVESGVIGDVGAEEEQEDEEDEEEDDEEEEEEEEVVDRKGKGISREDKGKGKMIEVEESDDEDDSDDDEDDEGFDEDDESDFSDDPLAEVDLDNILPSRTRRRSSQPGVFIPNEFSNRHVNDEDDESSDSDA	failed
MAEASSLVGKLETEVEIKASAKKFHHMFTERPHHVSKATPDKIHGYGKLTVGKNKIEAVDPEKNLITFKVLEGDLMNEYKSFAFTLQVTPKQGESGSIAHWHLEYEKISEEVAHPETLLQFCVEISKEIDEHLLAEE	failed
